In patent publication US20090291081A1 (AbbVie / Abbott, published 2009):
Positions count from the first letter of the chain named. “And” between values parts separate entries of the source, which are not always exact repeats. Equal entries are not always repeated. Values belong to the binder of their own block, whether it stands above or below them.

How the values were obtained:
human IL-1β [1] = target: T1, human IL-1β (human, UniProt P01584 117-269); experiment: cell-based or functional assay
human IL-1α [2] = target: T2, human IL-1α (human, UniProt P01583 113-271); experiment: cell-based or functional assay
T2 sequence (looked up): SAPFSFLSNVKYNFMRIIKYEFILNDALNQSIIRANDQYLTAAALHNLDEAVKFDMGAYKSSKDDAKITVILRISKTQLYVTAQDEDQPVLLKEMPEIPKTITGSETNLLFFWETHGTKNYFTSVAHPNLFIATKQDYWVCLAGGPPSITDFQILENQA

human IL-1β [3] = target: T1, human IL-1β; experiment: cell-based or functional assay; remark: listed apart in the source
human IL-1α [4] = target: T2, human IL-1α; experiment: cell-based or functional assay; remark: listed apart in the source
human IL-1β [5] = target: T1, human IL-1β; experiment: cell-based or functional assay; remark: listed apart in the source
human IL-1α [6] = target: T2, human IL-1α; experiment: cell-based or functional assay; remark: listed apart in the source
human IL-1α [7] = target: T3, human IL-1α (human, UniProt P01583 113-271); experiment: Table 62 KD; BIAcore presumed
T3 construct: also called IL-1alpha; hIL-1α
T3 sequence (looked up): T2 sequence (looked up)

human IL-1α [8] = target: T3, human IL-1α; experiment: Table 62 IC50; RBA presumed
human IL-1α [9] = target: T3, human IL-1α; experiment: cell-based or functional assay; remark: listed apart in the source

IL-1β IC50 (human IL-1β [3]): 1 nM
IL-1α IC50 (human IL-1α [4]): 400 nM
MRC5 IL-1β (human IL-1β [5]): 0.975 nM
MRC5 IL-1α (human IL-1α [6]): 400 nM
B2: ABT2-65-17/ABT1-141-25 hu IgG1/K wt (bispecific antibody, V domains shown)
VH: EVQLLESGGGLVQPGGSLRLSCVASGFTFEDYQMGWVRQAPGKGLEWVSSISAMGNRTYYADSVKGRFTISRDDSKNTLYLQMNSLRAEDTAVYYCAQNLVRLGRSRWMFDYWGQGTLVTVSS
VL: DIQMTQSPSSLSASVGDRVTITCRASQWIQKQLAWYQQKPGKAPKLLIYSSSYLQSGVPSRFSGSGSGTDFTLTISSLQPEDFATYYCQQHLRVPMTFGQGTKVEIKR

Kd (human IL-1α [7]): 0.4 nM
B4: ABT1-95-15 (other)
VL: DIQMTQSPSSLSASVGDRVTITCRASQPIVRNLRWYQQKPGKAPKLLIYSSSYLEPGVPSRFSGSGSGTDFTLTISSLQPEDFATYHCQQGYRWPVTFGQGTKVEIKR
notes: VK dAb

Kd (human IL-1α [7]): 0.9 nM
IC50 (human IL-1α [8]): 0.8 nM
B5: ABT1-95-12 (other)
VL: B4 VL with V30H, R31G, P56S, G57W
notes: VK dAb

Kd (human IL-1α [7]): 2.1 nM
ND50 (human IL-1α [9]): 1 nM
IC50 (human IL-1α [8]): 0.8 nM
B8: ABT1-95-6 (other)
VL: B4 VL with V30Q, R31G, P56S
notes: VK dAb

Kd (human IL-1α [7]): 1.1 nM
ND50 (human IL-1α [9]): 0.3 nM
IC50 (human IL-1α [8]): 0.9 nM
B9: ABT1-95-11 (other)
VL: B4 VL with V30Q, R31G, K42I, P56R, Q79H, F83L
notes: VK dAb

Kd (human IL-1α [7]): 7 nM
ND50 (human IL-1α [9]): 80 nM
IC50 (human IL-1α [8]): 4 nM
B10: ABT1-95-3 (other)
VL: B4 VL with V30H, R31G, E55Q, P56S
notes: VK dAb

Kd (human IL-1α [7]): 0.9 nM
ND50 (human IL-1α [9]): 0.12 nM
IC50 (human IL-1α [8]): 0.3 nM
B11: ABT1-95-13 (other)
VL: B4 VL with P56R
notes: VK dAb

Kd (human IL-1α [7]): 1.5 nM
ND50 (human IL-1α [9]): 2 nM
IC50 (human IL-1α [8]): 0.7 nM
B12: ABT1-95-4 (other)
VL: B4 VL with E55Q, P56S
notes: VK dAb

Kd (human IL-1α [7]): 0.9 nM
IC50 (human IL-1α [8]): 0.8 nM
B13: ABT1-95-10 (other)
VL: B4 VL with V30Q, R31G, P56R, Q79H, F83L
notes: VK dAb

Fab IL-1β ND10 (human IL-1β [1]): 10 nM
Fab IL-1α ND10 (human IL-1α [2]): 3 nM
B15: Fab ABT1-96/ABT2-42 (Fab, V domains shown)
VH: EVQLLESGGGLVQPGGSLRLSCAASGFTFNQYNMFWVRQAPGKGLEWVSVISGSGRFTYADSVKGRFTISRDNSKNTLYLQMNSLRAEDTAVYYCAKGWWRRDPPFDYWGQGTLVTVSS
VL: DIQMTQSPSSLSASVGDRVTITCRASQYIEKWLTWYQQKPGKAPTLLIYRGSLLQSGVPRFSGSGSGTDFTLTISSLQPEDFATYYCQQTEYWPFTFGQGTKVEIKR

IL-1α IC50 (human IL-1α [4]): 1000 nM and 1500 nM and 3000 nM
MRC5 IL-1β (human IL-1β [5]): 22 nM
MRC5 IL-1α (human IL-1α [6]): 1500 nM
B17: ABT2-108/ABT1-141 hu IgG1/K wt (bispecific antibody, V domains shown)
VH: EVQLLESGGGLVQPGGSLRLSCAASGFTFAEYTMMWVRQAPGKGLEWVSRIGQDGKNTYYADSVKGRFTISRDNSKNTLYLQMNSLRAEDTAVYYCAKYTGRVGVHHLFDYWGQGTLVTSS
VL: DIQMTQSPSSLSASVGDRVTITCRASQWIQKQLAWYQQKPGKAPKLLIYSSSYLQSGVPRFSGSGSGTDFTLTISSLQPEDFATYYCQQHLRVPFTFGQGTKVEIKR

IL-1β IC50 (human IL-1β [3]): 0.2 nM and 0.4 nM
IL-1α IC50 (human IL-1α [4]): 1000 nM
MRC5 IL-1β (human IL-1β [5]): 1 nM
MRC5 IL-1α (human IL-1α [6]): 1000 nM
B21: ABT2-108-521/ABT1-122 hu IgG1/K wt (bispecific antibody, V domains shown)
VH: EVQLLESGGGLVQPGGSLRLSCAASGFTFAEYTMMWVRQAPGKGLEWVSRIGQDGKNTYYADSVKGRFTISRDNSKNTLYLQMNSLRAEDTAVYYCAKYTGRILGHHLFDYWGQGTLVTVSS
VL: DIQMTQSPSSLSASVGDRVTITCRASQPIWTELNWYQQKPGKAPKLLIYGSSSLQSGVPRFSGSGSGTDFTLTISSLQPEDFATYYCQQFAYFPATFGQGTKVEIKR

Continued, binder first:

B1: Fab ABT1-6-23/ABT2-46 (Fab, V domains shown)
VH: EVQLLESGGGLVQPGGSLRLSCAASGFTFVRYDMAWVRQAPGKGLEWVSSIYKSGALTSYDSVKGRFTISRDNSKNTLYLQMNSLRAEDTAVYYCAKGWASFDYWGQGTLVTVSS
VL: DIQMTQSPSSLSASVGDRVTITCRASQSIIEWLSWYQQKPGKAPKLLIYRTSVLQSGVPSRFSGSGSGTDFTLTISSLQPEDFATYYCQQNEFWPFTFGQGTKVEIKR
Fab IL-1β ND10 (human IL-1β [1]): 150 nM
Fab IL-1α ND10 (human IL-1α [2]): 4 nM

B3: ABT2-65-166/ABT1-95-A5 hu IgG1mut 234, 235/K (bispecific antibody, V domains shown)
VH: B2 VH with V23A, N56G, D74N
VL: B4 VL with Q27R, P28T, I29P, S51R, Y53F, Q89L, V96P
IL-1β IC50 (human IL-1β [3]): 0.145 nM
IL-1α IC50 (human IL-1α [4]): 0.015 nM
MRC5 IL-1β (human IL-1β [5]): 0.197 nM
MRC5 IL-1α (human IL-1α [6]): 0.014 nM

B6: ABT1-95-9 (other)
VL: B4 VL with V30Q, R31G, P56R, Q79H
notes: VK dAb
Kd (human IL-1α [7]): 1 nM
IC50 (human IL-1α [8]): 0.8 nM

B7: ABT1-95-8 (other)
VL: B4 VL with V30Q, R31G, P56R
notes: VK dAb
Kd (human IL-1α [7]): 2.1 nM
ND50 (human IL-1α [9]): 1 nM
IC50 (human IL-1α [8]): 0.8 nM

B14: ABT1-95-14 (other)
VL: B4 VL with R31K, P56R
notes: VK dAb
Kd (human IL-1α [7]): 1.2 nM
ND50 (human IL-1α [9]): 0.25 nM
IC50 (human IL-1α [8]): 0.3 nM

B16: Fab ABT1-96/ABT2-13 (Fab, V domains shown)
V domain 1: B15 VH
V domain 2: EVQLLESGGGLVQPGGSLRLSCAASGFTFRDYVMYWARQAPGKGLEWVSRIDPMGSSTYYADSVKGRFTISRDNSKNTLYLQMNSLRAEDTAVYYCAKPEGNFDYWGQGTLVTVSS
Fab IL-1β ND10 (human IL-1β [1]): 80 nM
Fab IL-1α ND10 (human IL-1α [2]): 0.9 nM

B18: Fab ABT1-141/ABT2-108 (Fab, V domains shown)
VH: B17 VH
VL: B17 VL
Fab IL-1β ND10 (human IL-1β [1]): 15 nM
Fab IL-1α ND10 (human IL-1α [2]): 10 nM

B19: Fab ABT1-122/ABT2-108 (Fab, V domains shown)
VH: B17 VH
VL: B21 VL
Fab IL-1β ND10 (human IL-1β [1]): 50 nM
Fab IL-1α ND10 (human IL-1α [2]): 3 nM

B20: ABT2-108-538x/ABT1-95-A3 hu IgG1mut 234, 235/K (bispecific antibody, V domains shown)
VH: B21 VH with E31D, Y32E, T33G, G52T, Q53Y, D54S
VL: B4 VL with Q27K, I29G, L33M, S51V, Q89L, V96P
IL-1β IC50 (human IL-1β [3]): 0.035 nM
IL-1α IC50 (human IL-1α [4]): 0.095 nM
MRC5 IL-1β (human IL-1β [5]): 0.023 nM
MRC5 IL-1α (human IL-1α [6]): 0.032 nM
